We go through two molecules from PMC5963871, “Regulation and function of H3K36 di-methylation by the trithorax-group protein complex AMC” (Development (Cambridge, England), 2018).

Assay [1] deals with T1, Drosophila Ash1_(XL-SET) (Ash1_(1275-1522)) (Drosophila, UniProt Q9VW15 1275-1522).
T1 sequence (looked up): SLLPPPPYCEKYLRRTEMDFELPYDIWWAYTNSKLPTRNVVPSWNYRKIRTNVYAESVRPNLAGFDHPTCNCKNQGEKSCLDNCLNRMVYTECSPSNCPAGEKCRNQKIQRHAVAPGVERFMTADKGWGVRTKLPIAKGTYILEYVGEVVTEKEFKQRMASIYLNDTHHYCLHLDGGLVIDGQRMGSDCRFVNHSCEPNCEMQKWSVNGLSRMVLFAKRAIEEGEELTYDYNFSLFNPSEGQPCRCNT
The assay can be described thus: cell-based or functional assay.

For assay [2], the target named is human ASH1L_(XL-SET) (ASH1L_(2035-2288)) (human, UniProt Q9NR48 2035-2288). The assay can be described thus: cell-based or functional assay.

B1: Drosophila full-length MRG15 (E. coli) (natural protein, UniProt Q9Y0I1 1-424, looked up)
chain: MGEVKPAKVENYSTGTDANTLFVDGERVLCFHGPLIYEAKVLKTKPDATPVEYYIHYAGWSKNWDEWVPENRVLKYNDDNVKRRQELARQCGERSKKDNKKGSAKAKKMEQMRNESRASTPSKDSNTSQSTASSTPTTSAGPGSKSEAGSTGTTTTNSTANSTTSRAHRKSTQSTPSTARPGTPSDKKEDPAAAETTEEEGPVAPKKKRMSEQRPSLTGSDVAEKPLPPTTTPSTPTTEPAPCVESEEAYAAKVEVKIKIPDELKHYLTDDWYAVVREHKLLELPAKVTVQQISEQYLAHKKSVKSTSASKEVAINDVLDGIVEYFNVMLGSQLLYKFERTQYADVMQKHPDTPLSELYGSFHLLRLFVRLGSMLSYSALDQQSMQNLLTHVQDFLKFLVKNSSIFFSMSNFINVDPEYVRNAQ
With B1, the “HMTase activity on recombinant oligonucleosome arrays (methyl-3H incorporation into histone H3, fluorography): Ash1_(XL-SET):MRG15 complex compared with Ash1_(XL-SET) alone” value in assay [1] is approximately 30 fold.

B2: MRG domain of human MRG15 (MRG15_(151-362), MRG15MRG) (domain or fragment)
chain: KNKQKTPGNGDGGSTSETPQPPRKKRARVDPTVENEETFMNRVEVKVKIPEELKPWLVDDWDLITRQKQLFYLPAKKNVDSILEDYANYKKSRGNTDNKEYAVNEVVAGIKEYFNVMLGTQLLYKFERPQYAEILADHPDAPMSQVYGAPHLLRLFVRIGAMLAYTPLDEKSLALLLNYLHDFLKYLAKNSATLFSASDYEVAPPEYHRKAV
For the molecule B2, in assay [2], the “HMTase activity on recombinant oligonucleosome arrays (methyl-3H incorporation into histone H3, fluorography): ASH1L_(XL-SET):MRG15MRG complex compared with ASH1L_(XL-SET) alone” value is approximately 7 fold.
